Data taken from patent US20140087995A1 (published 2014).
Numbered stars: 1 amine (or outer) side, 2 acyl side, 3 side chain; on linkers, the order of the positions; unused ones are H or OH. Bridge positions count the residues as written; N and C are the ends. Side chains are listed from the residue outwards. Ends that are not written are not given here. * marks the point of attachment. C20 diacid = O=C(O)CCCCCCCCCCCCCCCCCCC(=O)*; γGlu = O=C(O)[C@H](CCC(=O)[*:2])N[*:1]; AEEA = NCCOCCOCC(=O)O

T1: rat calcitonin receptor (rat, UniProt P32214 25-516)
T1 construct: whole, on cells; Used as membranes prepared from the transfected cells; also called rCTR; rCT
T1 sequence (looked up): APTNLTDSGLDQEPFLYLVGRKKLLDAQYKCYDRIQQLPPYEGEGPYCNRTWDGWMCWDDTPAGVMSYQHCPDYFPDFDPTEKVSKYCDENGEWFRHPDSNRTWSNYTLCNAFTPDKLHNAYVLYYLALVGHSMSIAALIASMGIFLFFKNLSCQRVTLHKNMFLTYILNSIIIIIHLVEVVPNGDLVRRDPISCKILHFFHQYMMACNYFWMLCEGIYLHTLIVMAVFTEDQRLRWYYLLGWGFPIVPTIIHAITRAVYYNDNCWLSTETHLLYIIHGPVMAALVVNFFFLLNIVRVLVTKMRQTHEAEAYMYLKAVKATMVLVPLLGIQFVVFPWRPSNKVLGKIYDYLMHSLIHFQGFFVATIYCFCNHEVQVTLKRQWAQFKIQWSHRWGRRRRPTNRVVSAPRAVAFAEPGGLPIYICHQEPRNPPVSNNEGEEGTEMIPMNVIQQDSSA

T2: human calcitonin receptor (human, UniProt P30988 25-474)
T2 construct: whole, on cells; Used as membranes prepared from the transfected cells; also called hCTR; hCT
T2 sequence (looked up): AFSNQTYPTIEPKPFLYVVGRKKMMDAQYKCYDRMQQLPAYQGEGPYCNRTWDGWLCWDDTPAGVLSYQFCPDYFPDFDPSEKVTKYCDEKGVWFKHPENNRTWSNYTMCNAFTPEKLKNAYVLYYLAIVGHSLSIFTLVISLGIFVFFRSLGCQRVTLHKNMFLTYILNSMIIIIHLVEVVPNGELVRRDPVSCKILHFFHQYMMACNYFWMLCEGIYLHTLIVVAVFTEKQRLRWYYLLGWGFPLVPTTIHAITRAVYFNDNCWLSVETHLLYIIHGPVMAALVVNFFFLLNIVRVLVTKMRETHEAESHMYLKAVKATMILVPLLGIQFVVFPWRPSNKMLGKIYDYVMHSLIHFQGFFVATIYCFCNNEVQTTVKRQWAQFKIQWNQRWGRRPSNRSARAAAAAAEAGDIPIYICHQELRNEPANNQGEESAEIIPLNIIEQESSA


Key:
rat calcitonin receptor [1] = target: T1, rat calcitonin receptor; assay: SPA competition with 125I-calcitonin, membranes with rat calcitonin receptor (Assay VIII)
[2] = target: T2, human calcitonin receptor; assay: ratio of binding IC50 at human calcitonin receptor to IC50 at human amylin receptor (reference)
Procedure: The resulting pellet was resuspended, homogenized and centrifuged (20.000 rpm, 15 min) in a buffer containing 20 mM Na-HEPES and 0.1 mM EDTA (pH 7.4, buffer 2). The resulting pellet was resuspended in buffer 2 and protein concentration was measured (BCA protein Assay, Pierce). The homogenate was kept cold during the whole procedure. The membranes were kept at −80° C. until use. The assay was performed in a 384 well Optiplate (PerkinElmer) in a total volume of 40 ul. Membranes were mixed with SPA beads. Final concentration of membranes 35 ng/μL final and SPA beads was 0.05 mg/well. Test-compounds were dissolved in DMSO and further diluted in assay buffer (50 mM Hepes, pH 7.4, 1 mM CaCl2, 5 mM MgCl₂, 0.1% OA and 0.02% Tween20). […] The final mixture was incubated with shaking at 400 rpm for 120 min at 25° C. prior to centrifugation (1500 rpm, 10 min). Samples were analyzed on TopCounter™ (Packard). The IC₅₀ was calculated using (one site binding competition analysis) GraphPad Prism5 as a measure of receptor affinity.
Membranes were prepared in the following way; the cells were rinsed with PBS and incubated with Versene for approximately 5 min before harvesting. The cells were flushed with PBS and the cell-suspension was centrifuged for 5 min at 1000 rpm. Cells were homogenized (Ultrathurrax) in a buffer containing 20 mM Na-HEPES and 10 mM EDTA (pH 7.4) and centrifuged at 20.000 rpm for 15 min. The resulting pellet was resuspended, homogenized and centrifuged (20.000 rpm, 15 min) in a buffer containing 20 mM Na-HEPES and 0.1 mM EDTA (pH 7.4, buffer 2). The resulting pellet was resuspended in buffer 2 and protein concentration was measured (BCA protein Assay, Pierce). The homogenate was kept cold during the whole procedure. The membranes were kept at −80° C. until use. Assay was performed in a 384 well Optiplate (PerkinElmer) in a total volume of 40 ul. Membranes were mixed with SPA beads.

rat calcitonin receptor [3] = target: T1, rat calcitonin receptor; assay: ratio of binding IC50 at rat calcitonin receptor to IC50 at rat amylin receptor (reference)

IC50 (rat calcitonin receptor [1]) | Ratio hCT/hAmylin binding [2] | Ratio rCT/rAmylin binding (rat calcitonin receptor [3]) | Binder
128 nM | 126 | 64.7 | K([AEEA-γGlu-C20 diacid])CNTATCATQRLARFLRHSSPNFGAIPSSTPVGSNTY-NH2 (disulfide 2-7; N-terminus assumed; SMILES CC[C@H](C)[C@H](NC(=O)[C@H](C)NC(=O)CNC(=O)[C@H](Cc1ccccc1)NC(=O)[C@H](CC(N)=O)NC(=O)[C@@H]1CCCN1C(=O)[C@H](CO)NC(=O)[C@H](CO)NC(=O)[C@H](Cc1c[nH]cn1)NC(=O)[C@H](CCCNC(=N)N)NC(=O)[C@H](CC(C)C)NC(=O)[C@H](Cc1ccccc1)NC(=O)[C@H](CCCNC(=N)N)NC(=O)[C@H](C)NC(=O)[C@H](CC(C)C)NC(=O)[C@H](CCCNC(=N)N)NC(=O)[C@H](CCC(N)=O)NC(=O)[C@@H](NC(=O)[C@H](C)NC(=O)[C@@H]1CSSC[C@H](NC(=O)[C@@H](N)CCCCNC(=O)COCCOCCNC(=O)CC[C@H](NC(=O)CCCCCCCCCCCCCCCCCCC(=O)O)C(=O)O)C(=O)N[C@@H](CC(N)=O)C(=O)N[C@@H]([C@@H](C)O)C(=O)N[C@@H](C)C(=O)N[C@@H]([C@@H](C)O)C(=O)N1)[C@@H](C)O)C(=O)N1CCC[C@H]1C(=O)N[C@@H](CO)C(=O)N[C@@H](CO)C(=O)N[C@H](C(=O)N1CCC[C@H]1C(=O)N[C@H](C(=O)NCC(=O)N[C@@H](CO)C(=O)N[C@@H](CC(N)=O)C(=O)N[C@H](C(=O)N[C@@H](Cc1ccc(O)cc1)C(N)=O)[C@@H](C)O)C(C)C)[C@@H](C)O, Analogue of human amylin; disulfide and C-terminal amide as told for h-amylin; also called compound 64)
143 nM | 140 | 87 | K([AEEA-γGlu-C20 diacid])CNTATCATQRLARFLRHSSPNFGAIPSSTNVGSNTY-NH2 (disulfide 2-7; N-terminus assumed; SMILES CC[C@H](C)[C@H](NC(=O)[C@H](C)NC(=O)CNC(=O)[C@H](Cc1ccccc1)NC(=O)[C@H](CC(N)=O)NC(=O)[C@@H]1CCCN1C(=O)[C@H](CO)NC(=O)[C@H](CO)NC(=O)[C@H](Cc1c[nH]cn1)NC(=O)[C@H](CCCNC(=N)N)NC(=O)[C@H](CC(C)C)NC(=O)[C@H](Cc1ccccc1)NC(=O)[C@H](CCCNC(=N)N)NC(=O)[C@H](C)NC(=O)[C@H](CC(C)C)NC(=O)[C@H](CCCNC(=N)N)NC(=O)[C@H](CCC(N)=O)NC(=O)[C@@H](NC(=O)[C@H](C)NC(=O)[C@@H]1CSSC[C@H](NC(=O)[C@@H](N)CCCCNC(=O)COCCOCCNC(=O)CC[C@H](NC(=O)CCCCCCCCCCCCCCCCCCC(=O)O)C(=O)O)C(=O)N[C@@H](CC(N)=O)C(=O)N[C@@H]([C@@H](C)O)C(=O)N[C@@H](C)C(=O)N[C@@H]([C@@H](C)O)C(=O)N1)[C@@H](C)O)C(=O)N1CCC[C@H]1C(=O)N[C@@H](CO)C(=O)N[C@@H](CO)C(=O)N[C@H](C(=O)N[C@@H](CC(N)=O)C(=O)N[C@H](C(=O)NCC(=O)N[C@@H](CO)C(=O)N[C@@H](CC(N)=O)C(=O)N[C@H](C(=O)N[C@@H](Cc1ccc(O)cc1)C(N)=O)[C@@H](C)O)C(C)C)[C@@H](C)O, Analogue of human amylin; disulfide and C-terminal amide as told for h-amylin; also called compound 82)

Continued, binder first:

Binder | IC50 (rat calcitonin receptor [1]) | Ratio hCT/hAmylin binding [2] | Ratio rCT/rAmylin binding (rat calcitonin receptor [3])
K([AEEA-C20 diacid])CNTATCATQRLANFLRHSSPNFGAIPSSTNVGHNTY-NH2 (disulfide 2-7; N-terminus assumed; SMILES CC[C@H](C)[C@H](NC(=O)[C@H](C)NC(=O)CNC(=O)[C@H](Cc1ccccc1)NC(=O)[C@H](CC(N)=O)NC(=O)[C@@H]1CCCN1C(=O)[C@H](CO)NC(=O)[C@H](CO)NC(=O)[C@H](Cc1c[nH]cn1)NC(=O)[C@H](CCCNC(=N)N)NC(=O)[C@H](CC(C)C)NC(=O)[C@H](Cc1ccccc1)NC(=O)[C@H](CC(N)=O)NC(=O)[C@H](C)NC(=O)[C@H](CC(C)C)NC(=O)[C@H](CCCNC(=N)N)NC(=O)[C@H](CCC(N)=O)NC(=O)[C@@H](NC(=O)[C@H](C)NC(=O)[C@@H]1CSSC[C@H](NC(=O)[C@@H](N)CCCCNC(=O)COCCOCCNC(=O)CCCCCCCCCCCCCCCCCCC(=O)O)C(=O)N[C@@H](CC(N)=O)C(=O)N[C@@H]([C@@H](C)O)C(=O)N[C@@H](C)C(=O)N[C@@H]([C@@H](C)O)C(=O)N1)[C@@H](C)O)C(=O)N1CCC[C@H]1C(=O)N[C@@H](CO)C(=O)N[C@@H](CO)C(=O)N[C@H](C(=O)N[C@@H](CC(N)=O)C(=O)N[C@H](C(=O)NCC(=O)N[C@@H](Cc1c[nH]cn1)C(=O)N[C@@H](CC(N)=O)C(=O)N[C@H](C(=O)N[C@@H](Cc1ccc(O)cc1)C(N)=O)[C@@H](C)O)C(C)C)[C@@H](C)O, Analogue of human amylin; disulfide and C-terminal amide as told for h-amylin; also called compound 91) [N^ε1-[2-[2-[2-(19-carboxynonadecanoylamino)ethoxy]ethoxy]acetyl]-[Arg17,Pro21,Pro27,His34]-h-amylin] | 29.4 nM | 101 | 76.3
K([AEEA-γGlu-C20 diacid])CNTATCATQRLAAFLRHSSPNFGAIPSSTPVGSNTY-NH2 (disulfide 2-7; N-terminus assumed; SMILES CC[C@H](C)[C@H](NC(=O)[C@H](C)NC(=O)CNC(=O)[C@H](Cc1ccccc1)NC(=O)[C@H](CC(N)=O)NC(=O)[C@@H]1CCCN1C(=O)[C@H](CO)NC(=O)[C@H](CO)NC(=O)[C@H](Cc1c[nH]cn1)NC(=O)[C@H](CCCNC(=N)N)NC(=O)[C@H](CC(C)C)NC(=O)[C@H](Cc1ccccc1)NC(=O)[C@H](C)NC(=O)[C@H](C)NC(=O)[C@H](CC(C)C)NC(=O)[C@H](CCCNC(=N)N)NC(=O)[C@H](CCC(N)=O)NC(=O)[C@@H](NC(=O)[C@H](C)NC(=O)[C@@H]1CSSC[C@H](NC(=O)[C@@H](N)CCCCNC(=O)COCCOCCNC(=O)CC[C@H](NC(=O)CCCCCCCCCCCCCCCCCCC(=O)O)C(=O)O)C(=O)N[C@@H](CC(N)=O)C(=O)N[C@@H]([C@@H](C)O)C(=O)N[C@@H](C)C(=O)N[C@@H]([C@@H](C)O)C(=O)N1)[C@@H](C)O)C(=O)N1CCC[C@H]1C(=O)N[C@@H](CO)C(=O)N[C@@H](CO)C(=O)N[C@H](C(=O)N1CCC[C@H]1C(=O)N[C@H](C(=O)NCC(=O)N[C@@H](CO)C(=O)N[C@@H](CC(N)=O)C(=O)N[C@H](C(=O)N[C@@H](Cc1ccc(O)cc1)C(N)=O)[C@@H](C)O)C(C)C)[C@@H](C)O, Analogue of human amylin; disulfide and C-terminal amide as told for h-amylin; also called compound 72) | 221 nM | 247 | 259
